The record followed here is US20240342215A1 (Regeneron, published 2024).

This assay addresses T1, PE labeled BCMA Fc reagent (AcroBio) (UniProt Q02223 1-54, PE label).
T1 construct: not shown: Fc part of the bought reagent
T1 sequence (looked up): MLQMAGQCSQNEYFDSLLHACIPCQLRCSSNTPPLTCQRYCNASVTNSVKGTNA
The assay is described as follows: flow cytometry; PE labeled BCMA Fc staining of transduced T cells. An excerpt: T cells were interrogated for cell surface CAR expression using flow cytometry. T cells were stained using a PE labeled BCMA Fc reagent (AcroBio). […] IL2 secretion of scFv-TCR was greater than anti-BCMA CAR in coculture with medium and low BCMA expressing cell lines (FIG. 21C). […] For Live-cell imaging by IncuCyte was used to analyze tumor cell growth of HT1080.BCMA stably transduced with red reporter. The HT1080.BCMA cells grew in the presence of UTD T cells and MAGEA4 TCR-T cells.
(In general: Flow cytometry measures light scatter and fluorescence of single cells or particles in a stream.)

B1: scFv-based CAR targeting human BCMA (SEQ ID NO: 101) (other)
chain: DIVLTQSPPSLAMSLGKRATISCRASESVTILGSHLIHWYQQKPGQPPTLLIQLASNVQTGVPARFSGSGSRTDFTLTIDPVEEDDVAVYYCLQSRTIPRTFGGGTKLEIKGSTSGSGKPGSGEGSTKGQIQLVQSGPELKKPGETVKISCKASGYTFTDYSINWVKRAPGKGLKWMGWINTETREPAYAYDFRGRFAFSLETSASTAYLQINNLKYEDTATYFCALDYSYAMDYWGQGTSVTVSSAAATTTPAPRPPTPAPTIASQPLSLRPEACRPAAGGAVHTRGLDFACDIYIWAPLAGTCGVLLLSLVITLYCKRGRKKLLYIFKQPFMRPVQTTQEEDGCSCRFPEEEEGGCELRVKFSRSADAPAYQQGQNQLYNELNLGRREEYDVLDKRRGRDPEMGGKPRRKNPQEGLYNELQKDKMAEAYSEIGMKGERRRGKGHDGLYQGLSTATKDTYDALHMQALPPR
notes: Chimeric antigen receptor on transduced T cells; also called anti-BCMA CAR; BCMA scFv CAR
For the molecule B1, the binding result is on record as “binds”.

B2: MAGEA4-reactive, HLA-A2-restricted TCR embedded with an scFv targeting human BCMA and a 2xG4S linker between the scFv and Va; TRB-P2A-BCMA.scFv-2xG4S-TRA (SEQ … (TCR)
TCR beta: DSGVTQTPKHLITATGQRVTLRCSPRSGDLSVYWYQQSLDQGLQFLIQYYNGEERAKGNILERFSAQQFPDLHSELNLSSLELGDSALYFCASSGGDGDEQFFGPGTRLTVLEDLKNVFPPEVAVFEPSKAEIAHTQKATLVCLATGFYPDHVELSWWVNGKEVHSGVSTDPQPLKEQPALNDSRYCLSSRLRVSATFWQNPRNHFRCQVQFYGLSENDEWTQDRAKPVTQIVSAEAWGRADCGITSASYHQGVLSATILYEILLGKATLYAVLVSALVLMAMVKRKDSRG
TCR alpha: DIVLTQSPPSLAMSLGKRATISCRASESVTILGSHLIHWYQQKPGQPPTLLIQLASNVQTGVPARFSGSGSRTDFTLTIDPVEEDDVAVYYCLQSRTIPRTFGGGTKLEIKGSTSGSGKPGSGEGSTKGQIQLVQSGPELKKPGETVKISCKASGYTFTDYSINWVKRAPGKGLKWMGWINTETREPAYAYDFRGRFAFSLETSASTAYLQINNLKYEDTATYFCALDYSYAMDYWGQGTSVTVSSGGGGSGGGGSAQKITQTQPGMFVQEKEAVTLDCTYDTSDPSYGLFWYKQPSSGEMIFLIYQGSYDQQNATEGRYSLNFQKARKSANLVISASQLGDSAMYFCAMSGGYTGGFKTIFGAGTRLFVKANIQNPDPAVYQLRDSKSSDKSVCLFTDFDSQTNVSQSKDSDVYITDKTVLDMRSMDFKSNSAVAWSNKSDFACANAFNNSIIPEDTFFPSSDVPCDVKLVEKSFETDTNLNFQNLLVIVLRILLLKVAGFNLLMTLRLWSS
notes: also called scFv-TCR; BCMA ScFv TCR
Take B2: the binding result is listed as “binds”.
